Molecular target: PHR2^(230–426 L348A/L358A/I362A) (rice, UniProt Q6Z156 230-426, L348A | L358A | I362A)
Assay: ITC; with InsP6

Kd: 140 nM
B1: SPX1^1–259 (C-terminally truncated fragment of rice SPX1) (domain or fragment)
chain: MKFGKSLSSQIVETLPEWRDKFLSYKDLKKRLKLIGGGGGGEERQAKRARVAADGGEEEAAAAAMTPEEAGFMRLLEAELDKFNSFFVEKEEEYIIRQKELQDRVARAAGRESKEELMRVRKEIVDFHGEMVLLENYSALNYTGLVKILKKYDKRTGALIRLPFIQKVLQQPFFTTDLLYKLVKQCEAMLDQLLPSNELSVSSEDGRGDSTNEDKPSNPSSSLVNGGTIPELDEIEYMESMYMKGTVAALRSLKEIRSG

From article PMC8639918 (2021)
